Experimental data taken from patent US20240158497A1 (published 2024).

T1: full length (FL) human gp130 over-expressed on HEK293/Stat3-luc/gp130-2X Sort cells (human, UniProt P40189 23-918)
T1 sequence: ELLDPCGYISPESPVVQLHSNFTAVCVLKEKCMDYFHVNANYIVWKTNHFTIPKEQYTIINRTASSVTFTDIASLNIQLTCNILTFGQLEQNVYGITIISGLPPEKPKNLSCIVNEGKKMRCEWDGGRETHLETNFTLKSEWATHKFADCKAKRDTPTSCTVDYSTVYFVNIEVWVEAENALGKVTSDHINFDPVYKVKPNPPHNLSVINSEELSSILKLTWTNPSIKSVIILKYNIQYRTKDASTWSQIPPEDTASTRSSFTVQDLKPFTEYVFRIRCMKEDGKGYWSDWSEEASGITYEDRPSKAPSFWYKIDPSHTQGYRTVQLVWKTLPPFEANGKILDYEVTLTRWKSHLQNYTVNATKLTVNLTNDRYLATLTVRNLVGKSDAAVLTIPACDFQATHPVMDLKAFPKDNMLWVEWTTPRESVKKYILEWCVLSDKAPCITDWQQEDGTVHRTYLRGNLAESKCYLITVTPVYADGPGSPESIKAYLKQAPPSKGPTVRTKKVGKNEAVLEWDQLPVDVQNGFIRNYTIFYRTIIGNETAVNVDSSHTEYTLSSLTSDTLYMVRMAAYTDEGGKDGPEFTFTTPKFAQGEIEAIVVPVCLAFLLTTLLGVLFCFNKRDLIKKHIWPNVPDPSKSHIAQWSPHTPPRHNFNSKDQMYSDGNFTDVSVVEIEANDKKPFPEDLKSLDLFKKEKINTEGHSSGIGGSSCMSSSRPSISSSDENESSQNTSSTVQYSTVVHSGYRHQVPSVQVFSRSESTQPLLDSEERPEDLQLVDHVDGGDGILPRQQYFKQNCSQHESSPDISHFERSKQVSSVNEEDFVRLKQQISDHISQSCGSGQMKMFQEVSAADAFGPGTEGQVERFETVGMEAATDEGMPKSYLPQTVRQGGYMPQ

T2: human gp130 expressed endogenously on IMR-32/Stat3-luc cells (human, UniProt P40189 23-918)
T2 construct: Endogenous gp130 of the human neuroblastoma line IMR-32
T2 sequence: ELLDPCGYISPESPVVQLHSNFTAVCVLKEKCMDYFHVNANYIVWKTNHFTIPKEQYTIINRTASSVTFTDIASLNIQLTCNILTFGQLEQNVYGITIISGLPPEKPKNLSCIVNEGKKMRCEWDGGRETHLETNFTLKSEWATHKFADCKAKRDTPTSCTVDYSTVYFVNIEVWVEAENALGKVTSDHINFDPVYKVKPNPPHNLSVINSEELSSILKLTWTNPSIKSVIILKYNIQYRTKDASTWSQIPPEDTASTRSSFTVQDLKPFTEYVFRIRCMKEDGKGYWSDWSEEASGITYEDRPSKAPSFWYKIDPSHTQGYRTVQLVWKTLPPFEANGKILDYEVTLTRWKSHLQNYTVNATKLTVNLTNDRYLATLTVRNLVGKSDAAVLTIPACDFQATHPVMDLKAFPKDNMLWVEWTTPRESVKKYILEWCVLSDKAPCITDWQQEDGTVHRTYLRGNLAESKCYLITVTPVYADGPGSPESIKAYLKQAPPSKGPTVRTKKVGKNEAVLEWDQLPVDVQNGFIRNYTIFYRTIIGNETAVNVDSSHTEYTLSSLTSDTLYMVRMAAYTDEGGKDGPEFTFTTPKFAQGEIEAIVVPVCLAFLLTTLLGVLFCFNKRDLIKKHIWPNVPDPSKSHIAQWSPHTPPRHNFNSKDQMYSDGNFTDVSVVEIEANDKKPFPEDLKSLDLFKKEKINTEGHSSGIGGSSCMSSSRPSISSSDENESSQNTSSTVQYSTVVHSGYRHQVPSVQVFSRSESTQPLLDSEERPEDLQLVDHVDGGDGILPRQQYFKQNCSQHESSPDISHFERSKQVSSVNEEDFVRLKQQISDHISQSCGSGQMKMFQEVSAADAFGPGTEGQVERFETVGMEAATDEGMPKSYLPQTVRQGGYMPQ


Legend:
[1] = biological target: T1, full length (FL) human gp130 …; assay: FACS, 10 nM Ab, HEK293/Stat3-luc/gp130-2X Sort cells
Text: (§1) In order to assess cell binding by anti-GP130 antibodies of the invention two cell lines were generated. One cell line generated was HEK293 cells stably over-expressing full length (FL) human gp130 (amino acids 1-918 of accession #P40189 with leucine at position 2 changed to valine, a natural variant) along with a luciferase reporter (Stat3-luciferase, Stat3-luc, SA Bioscience, #CLS-6028L). The cells were sorted twice using flow cytometry for high expression of gp130. It is known hereafter as HEK293/Stat3-luc/gp130-2 X Sort. IMR-32 cells (human Neuroblastoma, ATCC), were also evaluated for cell binding as these cells express gp130 endogenously and were used for bioassays. The cells used for binding were generated to stably express a luciferase reporter (Stat3-luciferase, Stat3-luc, SA Bioscience, #CLS-6028L), and are referred to hereafter as IMR-32/STAT3-Luc cells.
(§2) For the FACS analysis, 10 nM of the antibodies were used to stain 0.5×10⁶ cells/well of each cell type at 4° C. in PBS (without calcium and magnesium) containing 2% FBS for 30 minutes. IMR-32/STAT3-luc cells were incubated with 1 mg/mL mouse IgG for 30 minutes at 4° C. to block Fc receptors prior to adding the antibodies. To test whether the anti-gp130 antibody binding is specific for gp130 on the IMR-32 cells, antibodies were added to IMR-32/Stat3-luc cells with or without being pre-bound to 1000 nM of recombinant protein of the ecto-domain of human gp130 fused to myc-myc-his tag (hgp130.mmh) for 30 minutes at 25° C. […] Cells were fixed using BD CytoFix™ (Becton Dickinson, #554655) and analyzed on an IQue® (Intellicyt®) Flow Cytometer. Unstained and secondary antibody alone controls were also tested for all cell lines. The results were analyzed using ForeCyt® (IntelliCyt®) software to determine the geometric means of fluorescence for viable cells.

[2] = biological target: T3, human GP130 delta D1 with C-terminal myc-myc hexahistidine tag (human, UniProt P40189 124-619); assay: Luminex, antigen captured on anti-myc beads
T3 construct: used as CHO supernatant; also called human GP130 delta D1-MMH; GP130 Delta D1 extracellular domain
Experimental: (§3) Aliquots of microspheres with immobilized anti-myc monoclonal antibodies, prepared as described above, were added individually to 1 mL of the each of these protein supernatants and to 500 uL of purified GP130 protein. The microspheres were gently mixed, incubated for two hours at 25° C., washed twice with 1 mL of DBPS, centrifuged to remove the supernatant and finally resuspended in 1 mL of DPBS buffer. Forty eight μL of anti-myc IgG coupled microspheres from individual reactions with full length human GP130 and with each of the human GP130 domain proteins were withdrawn and mixed together in 3.6 mL of PBS+20 mg/mL BSA+0.05% sodium azide (blocking buffer).
(§4) From this mixed pool, 75 μL of microspheres were plated per well on a 96 well filter plate (Millipore, Cat. No: MSBVN1250) and mixed with 25 μL of individual anti-human GP130 monoclonal antibodies (0.5 or 5 μg/mL), incubated for two hours at 25° C. and then washed twice with 200 μL of DPBS with 0.05% Tween 20 (washing buffer). To detect and quantify the amounts of bound anti-GP130 antibody levels to individual microspheres, either 100 μL of 2.5 μg/mL R-Phycoerythrin conjugated goat F(ab′)2 anti-human kappa (Southern Biotech, Cat #2063-09) in blocking buffer, was added and incubated for 30 minutes at 25° C. After 30 minutes, the samples were washed twice with 200 μL of washing buffer and resuspended in 150 μL of wash buffer. The Median Fluorescence intensity (MFI) of the microspheres was measured in a Luminex Analyzer.

[3] = biological target: T4, human GP130 delta D1-D3 with C-terminal myc-myc hexahistidine tag (human, UniProt P40189 329-619); assay: Luminex, antigen captured on anti-myc beads
T4 construct: used as CHO supernatant; also called human GP130 delta D1-D3-MMH; GP130 Delta D1-D3 extracellular domain
Experimental: as §3, §4

[4] = biological target: T5, human GP130 full length extracellular domain with C-terminal myc-myc-hexahistidine tag (human, UniProt P40189 23-619); assay: Luminex, antigen captured on anti-myc beads
T5 construct: Monomeric; also called human GP130-MMH; hGP130-mmH
Experimental: as §3, §4

[5] = biological target: T2, human gp130 expressed endogenously on …; assay: FACS, 10 nM Ab, IMR-32/Stat3-luc cells, no hGP130.mmh
Text: as §1, §2

T3 sequence (P40189 other isoform, or with tags, fused parts or gaps mutant limits assumed): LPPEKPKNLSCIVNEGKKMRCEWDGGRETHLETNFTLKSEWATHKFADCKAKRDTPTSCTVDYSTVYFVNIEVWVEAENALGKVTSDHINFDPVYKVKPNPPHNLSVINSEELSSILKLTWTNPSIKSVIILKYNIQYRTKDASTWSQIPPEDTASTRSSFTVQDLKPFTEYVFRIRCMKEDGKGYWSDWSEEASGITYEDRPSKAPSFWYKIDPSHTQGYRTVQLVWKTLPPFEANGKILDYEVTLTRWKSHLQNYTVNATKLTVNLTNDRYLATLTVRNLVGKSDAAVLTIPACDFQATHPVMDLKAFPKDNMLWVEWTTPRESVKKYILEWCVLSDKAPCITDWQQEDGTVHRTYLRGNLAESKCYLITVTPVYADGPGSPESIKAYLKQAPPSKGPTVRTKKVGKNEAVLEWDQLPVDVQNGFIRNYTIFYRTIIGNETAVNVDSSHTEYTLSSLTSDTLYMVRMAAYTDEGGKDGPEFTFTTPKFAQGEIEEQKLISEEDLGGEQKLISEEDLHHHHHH
T4 sequence (P40189 other isoform, or with tags, fused parts or gaps mutant limits assumed): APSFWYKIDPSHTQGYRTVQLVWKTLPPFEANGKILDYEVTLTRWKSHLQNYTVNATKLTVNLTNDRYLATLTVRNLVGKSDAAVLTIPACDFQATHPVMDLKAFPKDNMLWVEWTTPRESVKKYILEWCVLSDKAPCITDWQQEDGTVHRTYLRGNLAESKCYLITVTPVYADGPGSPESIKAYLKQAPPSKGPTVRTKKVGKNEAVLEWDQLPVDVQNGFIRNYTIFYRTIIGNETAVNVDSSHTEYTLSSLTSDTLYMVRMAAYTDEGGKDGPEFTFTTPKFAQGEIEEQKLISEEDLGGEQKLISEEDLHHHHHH

Binder	MFI - Normalized to Unstained Control [1] [ratio]	Luminex MFI signal [2] [MFI]	Luminex MFI signal [3] [MFI]	Luminex MFI signal [4] [MFI]	MFI - Normalized to Unstained Control [5] [ratio]
MAb16623 (antibody, V domains shown, hIgG4 isotype control used) VH: EVQLVESGGGLVQPGGSLRLSCAASGLTFSSYEMNWVRQAPGKGLEWVSHISSAGSTKYYADSVKGRFTISRDNAKNSLFLQMNSLRAEDTAIYYCAGYNYAYYYFGVDVWGQGTTVTVSS VL: not shown	96	12600	16000	17600	8
MAb16622 (antibody, V domains shown, hIgG4 isotype control used) VH: EVQLVESGGGVVRPGGSLRLSCTASGFTFDDYGMSWVRQAPGKGLEWVSGINWNGGRTEYADAVKGRFIISRDNAKNSLYLQMNSLRAEDTALYFCARTELRWDYWGQGTLVTVSS VL: not shown	91	391	20	18500	5
MAb16673 (antibody, V domains shown, hIgG4 isotype control used) VH: EVQLVQSGAEVKKPGESLKISCKGSGYSFTSYWIDWVRQMPGKGLEWMGIIYPDDSDTRYSPSFQGQVTMSVDKSISTAYLQWSSLKASDTAIYYCARHERGIVEAGTDYYYYYGMDVWGQGTTVTVSS VL: not shown	107	2340	33	15100	10
MAb16682 (antibody, V domains shown, hIgG4 isotype control used) VH: EVQLVESGGGLVQPGGSLRLSCAASGFTFSTYWMNWVRQAPGKGLEWVANIKEDGSEKYYVDSVKGRFTISRDNAKNSLYLQMNSLRAEDTAVYYCAREGFGVVTYIWGQGTMVTVSS VL: not shown	80	1380	13	13800	6
MAb16662 (antibody, V domains shown, hIgG4 isotype control used) VH: EVQLVESGGGLVQPGGSLRLSCTASGFTFSNYAIFWVRQAPGKGLEYVSGISNNGVTKYYADSVRDRFTISRDNSRNTVSIQMDSLRTEDMAVYYCARENWGSDDGFDIWGQGTMVTVSS VL: not shown	49	3050	16	13900	5
MAb16618 (antibody, V domains shown, hIgG4 isotype control used) VH: QVQLQESGPGLVKPSETLSLTCTVSGGSISNYYWTWIRQPPGKGLEWIGHISNSGTTNYNPSLKSRVTISVDTSKNQFSLKLTSVTAADTAVYYCARLPLGIAAVDTDYYYYFGMDVWGQGTTVTVSS VL: not shown	105	2630	19	19000	7
MAb16659 (antibody, V domains shown, hIgG4 isotype control used) VH: QVQLVQSGPEVKKPGSSVKVSCKASGGTIDRNEITWVRQAPGQGLEWMGVIIPILGEAHYERKFQGRLTITMDESTSTAYMELSNLRSEDTAVYYCARERAARGYLDYWGQGTLVTVSS VL: not shown	81	49	22	17100	8
MAb16666 (antibody, V domains shown, hIgG4 isotype control used) VH: EVQLVESGGGLVQSGGSLRLSCAASGFTFSRYEMNWVRQAPGKGLEWVAYISNTGTTRDYSDSVKGRFTISRDNAKNSLYLQMSSLRVEDTAVYYCVREKFSGTSDWFDPWGQGTLVTVSS VL: not shown	159	7280	319	16700	23
MAb16636 (antibody, V domains shown, hIgG4 isotype control used) VH: QLQLQESGPGLVKPSETLSLICTVSGGSISSNNYYWGWIRQPPGKGLEWIGNLYGSGSTYYNPSLKSRVTISVDTSKNQFSLKLSFVTAADTAVYHCARWDTNGGAFDIWGQGTMVTVSS VL: not shown	92	4260	1070	17600	8
MAb16656 (antibody, V domains shown, hIgG4 isotype control used) VH: EVQLVESGGGLVQPGRSLRLSCAASGFTLDDFAMHWVRQAPGKGLEWVSGISWNSGNIGYADSVKGRFTISRDNARNSLYLQMNSLRAEDTALYYCTSGYYLYYAMDVWGQGTTVTVSS VL: not shown	132	48	17	15900	12
MAb16637 (antibody, V domains shown, hIgG4 isotype control used) VH: QVQLVQSGAEVKKPGASVKVSCKASGYTFTSLGISWVRQAPGQGLEWMGWISAYSGNRDYAQKFQGRVTMTTDTSTSTAYMELRSLRSDDTAVYYCARSLRFDYWGQGTLVTVSS VL: not shown	121	342	861	16900	9
